Source: US20240425589A1, “CYTOTOXICITY-INDUCING THERAPEUTIC AGENT FOR USE IN TREATMENT OF CANCER” (CHUGAI SEIYAKU KABUSHIKI KAISHA, priority 2021, published 2024)

Tested on: MC38/CLDN6
Experiment: xCELLigence mechanism assay with KLH/CD137 bispecific antibody
Assay type: cell-based, mouse
Conditions: 1 nM
Protocol: The mechanism of T-cell dependent growth inhibition mediated by the anti-CLDN6/Dual-Fab tri-specific antibodies was assessed by cell proliferation assay using an xCELLigence RTCA MP instrument (ACEA Biosciences).
Mouse colon cancer cell line MC38/CLDN6 expressing human CLDN6 was used as target cells. Spleens were collected aseptically from hCD3 transgenic mice and hCD3/hCD137 knock-in mice. The spleen was ground in RPMI-1640 medium containing 10% FBS, passed through a 70-μm cell strainer, and then centrifuged (at 1200 rpm for 10 minutes at room temperature) to isolate spleen cells. The isolated spleen cells were hemolyzed, then T cells alone were isolated using CD3 MicroBeads (Miltenyi Biotec), and used as effector cells.
The background was measured by adding the culture medium to an E-Plate 96 plate (Roche Diagnostics) at 50 μL/well, and then 5×10^3 target cells were plated at 50 μL/well. After culturing overnight, 1 nM (final concentration) of CS4135 together with the KLH/CD137 bispecific antibody at a concentration selected from 100 nM or 500 nM (final concentration) were added at 25 μL/well, respectively. […] Cell growth was monitored every 10 min using xCELLigence over 48 hours during the incubation of the plates. The rate of cell growth inhibition (CGI: %) was determined from the cell index value according to the following formula: […]

B1: PPU4135: anti-CLDN6/Dual-Fab tri-specific antibody, chains SEQ ID NOs 42, 51, 56, 69; CS4135 same antibody (protein)
chain 1: QVQLVESGGGVVQPGGSLRLSCAASGFTFSSYTMSWVRQAPGQGLEWMGTISSGGGRTYYPDSVKGRFTISRDNSKNTLYLQMNSLRDEDTAVYYCARGDYRYDGFAYWGEGTLVTVSSASTKGPSVFPLAPSSKSTSGGTAALGCLVEDYFPEPVTVSWNSGALTSGVHTFPAVLESSGLYSLSSVVTVPSSSLGTQTYICNVNHKPSNTKVDKRVEPKSCDKTHTCPPCPAPEAAGGPSVFLFPPKPKDTLMISRTPEVTCVVVDVSHEDPEVKFNWYVDGVEVHNAKTKPREEQYASTYRVVSVLTVLHQDWLNGKEYKCKVSNKALPAPIEKTISKAKGQPREPQVYTLPPSREEMTKNQVSLTCLVKGFYPSDIAVEWESNGQPENNYKTTPPVLDSDGSFFLYSKLTVDKSRWQQGNVFSCSVMHEALHNHYTQESLSLSP
chain 2: DIQMTQSPSSLSASVGDRVTITCRASYNIDSYLAWYQQKPGKAPELLIYYSTLLVDGVPDRFSGSRSGTDFTLTISSLQPEDFATYYCQHYYSIPYTFGQGTKVEIERTVAAPSVFIFPPSDEQLKSGTAKVVCLLNNFYPREAKVQWKVDNALQSGNSKESVTEQDSKDSTYSLSSTLTLSKADYEKHKVYACEVTHQGLSSPVTKSFNRGEC
chain 3: QVQLVESGGGLVQPGRSLRLSCAASGFKFSNVWFHWVRQAPGKGLEWVAQIKDYYNAYAAYYAPSVKGRFTISRDDSKNSIYLQMNSLKTEDTAVYYCHYVHYASASTLLPAEGVDAWGQGTTVTVSSASTKGPSVFPLAPSSKSTSGGTAALGCLVKDYFPEPVTVSWNSGALTSGVHTFPAVLKSSGLYSLSSVVTVPSSSLGTQTYICNVNHKPSNTKVDKRVEPKSCDKTHTCPPCPAPEAAGGPSVFLFPPKPKDTLMISRTPEVTCVVVDVSHEDPEVKFNWYVDGVEVHNAKTKPREEQYASTYRVVSVLTVLHQDWLNGKEYKCKVSNKALPAPIEKTISKAKGQPREPQVYTLPPSRKEMTKNQVSLTCLVKGFYPSDIAVEWESNGQPENNYKTTPPVLDSDGSFFLYSKLTVDKSRWQQGNVFSCSVMHEALHNHYTQKSLSLSP
chain 4: DIVMTQSPLSLPVTPGEPASISCQPSQEVVHMNRNTYLHWYQQKPGQAPRLLIYKVSNRFPGVPDRFSGSGSGTDFTLKISRVEAEDVGVYYCAQGTSHPFTFGQGTKLEIKRTVAAPSVFIFPPSDEQLKSGTAEVVCLLNNFYPREAKVQWKVDNALQSGNSEESVTEQDSKDSTYSLSSTLTLSKADYEKHKVYACEVTHQGLSSPVTKSFNRGEC
cell growth inhibition rate (T cells from hCD3/hCD137 knock-in mice vs hCD3 transgenic mice, no KLH/CD137 bispecific antibody): significantly higher | cell growth inhibition rate (hCD3/hCD137 knock-in T cells, 500 nM KLH/CD137 bispecific antibody added): decreased to the same level as when using hCD3 transgenic mice-derived T cells
